Consider 38 molecules from article PMC314469, “Protein Interaction Networks by Proteome Peptide Scanning” (PLoS Biology, 2004).

Experiment [1] addresses endophilin SH3 (SH3G2_HUMAN), Q99962. Kind of experiment: SPOT array.
Experiment [2] concerns the target T1, amphyphisin SH3 (AMPH_HUMAN), P49418.
T1 chain: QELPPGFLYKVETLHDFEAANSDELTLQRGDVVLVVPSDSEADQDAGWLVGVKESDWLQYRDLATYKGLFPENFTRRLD
Nature of the experiment: SPOT array.

B1: Q9UHD9 6-19 (peptide)
chain: ESSGPPRPSRGPAA
As for B1, the normalised SPOT signal, Boehringer light units (BLU); mean over the file's lines of this peptide in experiment [1] amounted to 295; in experiment [2] it was 2690.

B2: Q9ULV5 88-101 (peptide)
chain: EQGGLLRPERDHVE
Take B2: the normalised SPOT signal, Boehringer light units (BLU); mean over the file's lines of this peptide in experiment [1] is 66.9; in experiment [2], 79.3.

B3: Q9P2K1 987-1000 (peptide)
chain: EQKRPLRPRRKGRK
With B3, the results for the normalised SPOT signal, Boehringer light units (BLU); mean over the file's lines of this peptide in experiment [1] and in experiment [2] were 1010 and 11900, respectively.

B4: Q9UHE8 34-47 (peptide)
chain: ETSMLKRPVLLHLH
As to B4, the normalised SPOT signal, Boehringer light units (BLU); mean over the file's lines of this peptide is 440 in experiment [1] and 79.9 in experiment [2].

B5: O43301 404-417 (peptide)
chain: EQFKIKRPAAWVDL
Regarding B5, the normalised SPOT signal, Boehringer light units (BLU); mean over the file's lines of this peptide came to 0 in experiment [1] and 4.3 in experiment [2].

B6: Q9P0R4 128-141 (peptide)
chain: EREALKRPMGPVHY
B6: the normalised SPOT signal, Boehringer light units (BLU); mean over the file's lines of this peptide amounted to 50.5 in experiment [1] and 11.6 in experiment [2].

B7: Q9HC10 643-656 (peptide)
chain: EVDGLSRPQRPRPR
With B7, the normalised SPOT signal, Boehringer light units (BLU); mean over the file's lines of this peptide in experiment [1] came to 281; in experiment [2] it was 135.

B8: Q16632 163-177 (peptide)
chain: ESQSPKRPPEDFET
Turning to B8, the normalised SPOT signal, Boehringer light units (BLU); mean over the file's lines of this peptide in experiment [1] was found to be 49.5; in experiment [2], 42.

B9: O75408 12-26 (peptide)
chain: ETSGPERPPEKPRK
With B9, the normalised SPOT signal, Boehringer light units (BLU); mean over the file's lines of this peptide was found to be 926 in experiment [1] and 38.5 in experiment [2].

B10: Q9Y6Z1 10-23 (peptide)
chain: ESRDITRPSRPADL
Turning to B10, the normalised SPOT signal, Boehringer light units (BLU); mean over the file's lines of this peptide in experiment [1] came to 134; in experiment [2], 192.

B11: P81408 388-402 (peptide)
chain: ESPLPRRPPRAARS
Turning to B11, the normalised SPOT signal, Boehringer light units (BLU); mean over the file's lines of this peptide worked out at 8150 in experiment [1] and 23200 in experiment [2].

B12: Q9HBL3 239-252 (peptide)
chain: ETNIPQRPSRPARR
As to B12, the normalised SPOT signal, Boehringer light units (BLU); mean over the file's lines of this peptide in experiment [1] is 1800; in experiment [2] it was 20700.

B13: P23470 686-699 (peptide)
chain: AGSDPKRPEMPSKK
Consider B13, for which the results for the normalised SPOT signal, Boehringer light units (BLU); mean over the file's lines of this peptide in experiment [1] and in experiment [2] were 66.5 and 23.2, respectively.

B14: P36508 395-408 (peptide)
chain: ESPPPKRPRIAYLS
For B14, the normalised SPOT signal, Boehringer light units (BLU); mean over the file's lines of this peptide in experiment [1] is 332; in experiment [2], 39.3.

B15: Q14333 377-390 (peptide)
chain: AGPRPRRPGSLPGW
For B15, the normalised SPOT signal, Boehringer light units (BLU); mean over the file's lines of this peptide stood at 805 in experiment [1] and 203 in experiment [2].

B16: Q9NPF5 43-56 (peptide)
chain: ETLTFKRPEGMHRE
Consider B16, for which the normalised SPOT signal, Boehringer light units (BLU); mean over the file's lines of this peptide in experiment [1] is 0; in experiment [2] it was 29.5.

B17: Q96PC8 10-23 (peptide)
chain: EQRPLKRPRLGPPD
As to B17, the normalised SPOT signal, Boehringer light units (BLU); mean over the file's lines of this peptide turned out to be 446 in experiment [1] and 31 in experiment [2].

B18: P11532 250-263 (peptide)
chain: EVEMLPRPPKVTKE
For B18, the values for the normalised SPOT signal, Boehringer light units (BLU); mean over the file's lines of this peptide in experiment [1] and in experiment [2] were 63 and 103, respectively.

B19: Q9NP57 254-267 (peptide)
chain: EPPAPRRPASLAQR
Turning to B19, the normalised SPOT signal, Boehringer light units (BLU); mean over the file's lines of this peptide in experiment [1] is 831; in experiment [2], 37.1.

B20: Q14185 1731-1744 (peptide)
chain: ETISPLRPQRPKSQ
With B20, the values for the normalised SPOT signal, Boehringer light units (BLU); mean over the file's lines of this peptide in experiment [1] and in experiment [2] were 220 and 4090, respectively.

B21: Q16530 104-117 (peptide)
chain: EVFFPPRPERVEHN
On to B21, for which the results for the normalised SPOT signal, Boehringer light units (BLU); mean over the file's lines of this peptide in experiment [1] and in experiment [2] were 122 and 484, respectively.

B22: Q9Y6U5 44-57 (peptide)
chain: ETSMLKRPVLLHLQ
Consider B22, for which the values for the normalised SPOT signal, Boehringer light units (BLU); mean over the file's lines of this peptide in experiment [1] and in experiment [2] were 182 and 16.4, respectively.

B23: O60896 2-15 (peptide)
chain: ETGALRRPQLLPLL
For B23, the normalised SPOT signal, Boehringer light units (BLU); mean over the file's lines of this peptide in experiment [1] was determined as 127; in experiment [2] it was 39.4.

B24: Q12968 137-150 (peptide)
chain: EREFLERPSRDHLY
B24: the figures for the normalised SPOT signal, Boehringer light units (BLU); mean over the file's lines of this peptide in experiment [1] and in experiment [2] were 108 and 334, respectively.

B25: Q03111 455-469 (peptide)
chain: EPPPPQKPPPPNSK
Regarding B25, the normalised SPOT signal, Boehringer light units (BLU); mean over the file's lines of this peptide worked out at 2240 in experiment [1] and 44.4 in experiment [2].

B26: O60298 756-769 (peptide)
chain: ESRDITRPSRPASY
Consider B26, for which the normalised SPOT signal, Boehringer light units (BLU); mean over the file's lines of this peptide was found to be 192 in experiment [1] and 539 in experiment [2].

B27: Q10472 159-172 (peptide)
chain: ERDFLKRPLESYVK
With B27, the figures for the normalised SPOT signal, Boehringer light units (BLU); mean over the file's lines of this peptide in experiment [1] and in experiment [2] were 4.5 and 42.3, respectively.

B28: Q9H5V9 75-88 (peptide)
chain: ETMYLRRPEGIERQ
In the case of B28, the figures for the normalised SPOT signal, Boehringer light units (BLU); mean over the file's lines of this peptide in experiment [1] and in experiment [2] were 128 and 20.5, respectively.

B29: Q9NRY7 86-99 (peptide)
chain: EVITLERPLRSNSS
Regarding B29, the normalised SPOT signal, Boehringer light units (BLU); mean over the file's lines of this peptide stood at 121 in experiment [1] and 384 in experiment [2].

B30: O15162 171-184 (peptide)
chain: EVITLERPLRSSSS
Take B30: the normalised SPOT signal, Boehringer light units (BLU); mean over the file's lines of this peptide in experiment [1] was found to be 102; in experiment [2] it was 660.

B31: Q9NU22 852-865 (peptide)
chain: EQVDLIRPWRRLLE
Regarding B31, the values for the normalised SPOT signal, Boehringer light units (BLU); mean over the file's lines of this peptide in experiment [1] and in experiment [2] were 147 and 131, respectively.

B32: O15021 1020-1033 (peptide)
chain: EQGSLKRPVSRKVG
In the case of B32, the normalised SPOT signal, Boehringer light units (BLU); mean over the file's lines of this peptide in experiment [1] worked out at 86.4; in experiment [2], 47.3.

B33: P40200 535-549 (peptide)
chain: ERPPPFKPPPPPIK
Regarding B33, the normalised SPOT signal, Boehringer light units (BLU); mean over the file's lines of this peptide in experiment [1] is 2690; in experiment [2], 92.2.

B34: P01034 24-38 (peptide)
chain: AGSSPGKPPRLVGG
On to B34, for which the normalised SPOT signal, Boehringer light units (BLU); mean over the file's lines of this peptide in experiment [1] amounted to 102; in experiment [2], 272.

B35: P25440 318-332 (peptide)
chain: ESGRPIKPPRKDLP
Consider B35, for which the results for the normalised SPOT signal, Boehringer light units (BLU); mean over the file's lines of this peptide in experiment [1] and in experiment [2] were 1950 and 8960, respectively.

B36: Q9Y334 62-76 (peptide)
chain: EQPPPGRPPLRLED
As to B36, the results for the normalised SPOT signal, Boehringer light units (BLU); mean over the file's lines of this peptide in experiment [1] and in experiment [2] were 92.4 and 33.6, respectively.

B37: Q9Y259 145-158 (peptide)
chain: EQYIPSRPLKTQEL
As to B37, the normalised SPOT signal, Boehringer light units (BLU); mean over the file's lines of this peptide was 159 in experiment [1] and 32.2 in experiment [2].

B38: O60885 322-336 (peptide)
chain: ESSRPVKPPKKDVP
Turning to B38, the normalised SPOT signal, Boehringer light units (BLU); mean over the file's lines of this peptide in experiment [1] stood at 96.9; in experiment [2], 52.8.
